3 molecules from article PMC10531985, “A Unique G-Quadruplex Aptamer: A Novel Approach for Cancer Cell Recognition, Cell Membrane Visualization, and RSV Infection Detection” can be followed below.

For data set [1], the target named is T1, nucleolin (NCL) (Homo sapiens, UniProt P19338 1-710). As to the kind of experiment: SPR; 150 mM KCl; SPR: 10 mM HEPES, 150 mM KCl, 3 mM EDTA, pH 7.4, NCL on CM5 chip, temperature not stated; EMSA: 5x binding buffer listed as 40 mM Tris, 30 mM KCl, 1 mM MgCl2, 1 mM DTT, pH 8.0, 200 nM probe, room temperature 25 min, gel with 20 mM KCl at 4 C. The following applies: protein: recombinant, parallel G4.

For data set [2], the target named is T1, nucleolin (NCL). As to the kind of experiment: SPR; up to 2 uM aptamer; SPR: 10 mM HEPES, 150 mM KCl, 3 mM EDTA, pH 7.4, NCL on CM5 chip, temperature not stated; EMSA: 5x binding buffer listed as 40 mM Tris, 30 mM KCl, 1 mM MgCl2, 1 mM DTT, pH 8.0, 200 nM probe, room temperature 25 min, gel with 20 mM KCl at 4 C. To be noted: protein: recombinant; no G4.
The target in data set [3] is T1, nucleolin (NCL). The data set can be described thus: EMSA; K+; SPR: 10 mM HEPES, 150 mM KCl, 3 mM EDTA, pH 7.4, NCL on CM5 chip, temperature not stated; EMSA: 5x binding buffer listed as 40 mM Tris, 30 mM KCl, 1 mM MgCl2, 1 mM DTT, pH 8.0, 200 nM probe, room temperature 25 min, gel with 20 mM KCl at 4 C. To be noted: protein: recombinant; label: 5'-FAM; parallel G4.

T1 sequence (P19338 whole entry): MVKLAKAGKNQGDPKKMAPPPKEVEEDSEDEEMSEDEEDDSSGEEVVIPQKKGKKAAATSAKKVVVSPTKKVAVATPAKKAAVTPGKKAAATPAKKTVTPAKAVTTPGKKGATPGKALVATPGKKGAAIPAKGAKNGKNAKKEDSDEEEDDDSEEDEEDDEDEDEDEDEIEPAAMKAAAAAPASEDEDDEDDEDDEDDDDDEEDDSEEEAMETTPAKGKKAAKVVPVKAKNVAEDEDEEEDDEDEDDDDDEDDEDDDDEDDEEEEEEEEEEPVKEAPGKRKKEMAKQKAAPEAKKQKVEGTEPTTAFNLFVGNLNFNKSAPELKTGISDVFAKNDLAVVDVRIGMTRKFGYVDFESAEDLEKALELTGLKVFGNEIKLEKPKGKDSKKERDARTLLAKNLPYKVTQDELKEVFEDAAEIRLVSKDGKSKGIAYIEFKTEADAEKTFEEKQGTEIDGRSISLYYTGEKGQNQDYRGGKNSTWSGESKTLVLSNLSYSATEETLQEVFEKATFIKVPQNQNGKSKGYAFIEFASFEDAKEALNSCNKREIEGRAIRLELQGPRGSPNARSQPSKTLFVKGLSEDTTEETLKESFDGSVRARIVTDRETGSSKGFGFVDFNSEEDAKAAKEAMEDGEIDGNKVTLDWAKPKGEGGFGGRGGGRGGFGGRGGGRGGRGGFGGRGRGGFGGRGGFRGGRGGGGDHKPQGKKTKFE

On to GUUAGGGUUUAUGGGAUUG (structured_RNA) [Apt-3], for which the Kd with nucleolin (NCL) [1] came to 20.4 nM.

With GUUAGAGUUUAUGAGAUUG (ssRNA) [Apt-3 mutant], the binding result in the data set with nucleolin (NCL) [2] was “no binding”.

On to GUUAGGGUUUAUGGGAUUG (structured_RNA) [Apt-3-F], for which the Kd with nucleolin (NCL) [1] (label: 5'-FAM) worked out at 24.9 nM; in the data set with nucleolin (NCL) [3], 77.1 nM.
